Test results as given in the RNAGym collection of RNA variant scans (doi:10.1073/pnas.2313332121).

B1: TPR t1 (parent)
chain: GACCAAUCUGCCCUCAGAGCUCGAGAACAUCUUCGGAUGCAGAGGAGGCAGGCUUCGGUGGCGCGAUAGCGCCAACGUCCUCAACCUCCAAUGCAUCCCACCACAUGAUGAUGCCUGAAGAGCCUUGGUUUUUUG

Variants of: B1
Assay: polymerase ribozyme fitness, log enrichment relative to wild type (log ratio); higher = more active; in vitro selection for triplet polymerase activity
Summary of the method: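 Frozen incubation at −7 °C formed the core of a single, triplicate in vitro selection round applied to PCR-built, transcribed mutant libraries of each subunit of a heterodimeric triplet polymerase ribozyme. Extended constructs were gel-excised, captured with streptavidin beads and amplified by RT-PCR, and input and output libraries were Illumina-sequenced with a filter of ≥10 input reads and ≥1 read per output. Fitness is the logarithm of genotype enrichment relative to wild-type enrichment, with inverse-variance-weighted replicate averaging, and the logarithm is base 2.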

Variant | polymerase ribozyme fitness (log ratio)
U21G C72A A121U | 0.876
G44A G57U C85U C104A U109A G120C | -4.62
G25A C72A | -5.51
G113C U116A | -4.45
C3G A111C | -1.69
A90G C97U A105C U130A | -3.67
C80U U129G U133A | -2.36
C49A C73A C101G C115A G120A | -2.56
G71A C123G | 1.1
C72U A118U | 0.0221
G17U A29G U55A | -4.06
C102U G120A | -1.2
A41U G69U | -0.159
A6U A90U | -0.93
C15U C64A C79A C98A G117U | -6.93
C15G C70U A84G | -5.53
C15G A43U | -3.43
C56G G69U A100U U130C | -0.344
A16U C53G U59C U96G U112A G128C | -3.81
C62A U81C C82A C98U | -4.18
C12G A121C | 1.5
C12U A41G G48A G57A C86U | -2.63
G23U U112G | -5.53
G10C C85A | -0.827

Variant | polymerase ribozyme fitness (log ratio)
G60C G120A | 0.168
A105C G128C | -3.71
A37G A43U G47U C101G | -4.64
C11G U30G U112A | -4.82
G63C A84G C94A | -3.04
C70A A83U | -2.44
A6U A50G G117A | -1.14
G10C U32C C114U | -0.699
C13U C28G C49U G69U | -1.49
C13G C76U | -1.95
C123G | 1.8
C15G G17A | -3.99
G107C A121U | -3.13
C12A G47C C70U G120C | -1.04
C15A C94U G120C | -0.704
C64U A121G | 1.93
U21C G42A | -1.45
U7G C72A A105U U125G | -2.26
U54A C72G C104U G113A | -3.29
C34A U87A | -3.34
C64U A91C G93A G120A U133G | -1.92
G19A G23U U92A G120U C124U | -6.05
U7G G63A C98A | -6.38
A5C G113A | -1.96

Variant | polymerase ribozyme fitness (log ratio)
G61U G93U | -0.532
A29G A37U A95C | -3.29
G35U C72U | -4.43
C11A C49G G60A G93U | -2.13
C89A G122A U125G | -4.57
C15U G60C G117A | 0.583
C3U G39A G69A A105C G120U G128C | -6.86
C73U C79G A119G C123A | -0.377
C8U C22G G57C C89A A95G A111U A121U | -3.38
U9A A27G C114U | -1.28
G48U U54C | -1.22
C72G C86A | -0.939
C53U C114U | -1.76
U78A A118G | -0.761
G60A U78G G113C U133G | -3.73
G57A G61A | -0.154
A5G U78A A95C U106G | -3.66
G35A C85U C94A | -6.51
C12G C34A C62U | -2.32
U78C C80A | -1.94
C62A C79U C82A A111C | -0.967
A2G C15G G44A C62A A90C C97U G120A | -3.89
C15U G42C A74U | -3.74
G63C C73U | -0.69

Variant | polymerase ribozyme fitness (log ratio)
C40U G120A | 0.164
C80A A95U C114U C124U | -7.55
C15U U54A U59A C80A C82G C123U | -3.3
G57A A84U | -0.813
U78C A100U | -0.819
G57A C98G U112A | -6.12
C15U C40U C114A | -4.3
C4A U59A C88A | -2.43
U7C A46C G60U | -0.333
C11A C101A | -3.16
C4U G10A G52U U81G C123G U125A | -4.99
G10C G35A U59C U112A | -5.77
C76A A118G | -0.854
C114A G135U | -1.88
G19C G42U G45C C72A C79A C82G | -3.62
G52A C85G | -1.03
A2C C4G G51C C101A | -6.08
U7C G17U C31U A95C C123U | -6.24
G36A G45U G61C | -3.57
C82G C102A U112A G120C U125G | -4.33
G36U C56G C123G | -5.15
C70A U106C C114A | -4.64
C56U G77A G117U G120A C124A | -1.34
A29C G63A G120U | -3.1

Variant | polymerase ribozyme fitness (log ratio)
U7A A26U | -2.56
C8A G44C U106G | -1.03
U7G C70U | -0.201
G36C U112G G117A | -3.75
G47U C70G | -6.87
C11G A111U | -2.19
C12A G47U | -2.48
C102U C124A | -0.401
C11U G135U | -1.81
A66U C72G | -1.63
C8U C11U | -0.675
G44C C73U U112G G120U G127C | -5.16
A50C A90U | -2
G71U C86U | -0.637
G42U G69C C123A | -3.23
U21C G45C C56U U109A A111U C124G | -4.35
G45A C72A U92G | -2.71
A5U C56G C70A | -3.29
A2C G60C | -1.65
C56U C123A | 0.593
C8U G44U | -1.28
C79A A105U | -4.41
G71C | -1.04
C12U C13U A74U C97A C123U C124A | -4.56

Variant | polymerase ribozyme fitness (log ratio)
G117C A118C | -3.06
C28G G93U | -3.89
A26U C53U A95U G113A | -6.17
C12G C20A G69A C79U C123U | -5.46
C28U C70G | -4.94
A46G U106A | 0.118
C8G C34U | -3.12
A16U G17U C124A | -1.9
C8G A27U G36A G42U C76A U96A U109A U116G | -6.96
G10U C22A A119U | -5.31
C11A A37U C62A C102A | -5.51
G47C G63U | -3.66
G39C C73G C102A | -4.36
C12U G36A | -0.19
C15U G127U | -2.39
C79A C94A G117U | -4.86
A2U G36C A74C | -3.04
G71U C123U | 0.812
G17A U21A G36U A41U A84C C97U C124A | -6.13
A43G G117U | -4.21
C13A C49U | -1.33
G35U C86U C98A | -4.39
U78C A118G | -0.499
C8A A18G C115A | -4.82

Variant | polymerase ribozyme fitness (log ratio)
A37C C73A A118U U125G | -0.0605
C40A C89G C101A U130G | -5.66
C86G C97U C115G | -4.24
C85A C114G | -4.62
C88U G107A | -6.88
U55G G58A U130A | -0.383
G48C G61A A83U U87A G128U | -3.32
A26U G36C G61U U81A U87C G120C | -4
C20U C34G A43U C70U C82U C114A | -7.14
C8G C80U | 0.0565
G63C G93C C97U C101U | -1.93
C40U A74G | -0.128
C11U C53A | -0.286
C40G C79U | -1.27
C22G G42U G44U C89U | -4.83
C8G C49G C82G A118U | 0.164
G63U A91C | -3.19
U7C G77C | -0.0984
C15A U133G | -3.68
G71C C79U C101U | -0.546
G45U G52U U54C G58C G60C | -0.884
A118G G135C | -0.273
A29U U96G U130C | -2.74
